In one experiment the test system is S. oneidensis AcpP. The experiment can be described thus: AcpH qualitative CP activity, holo-SoAcpP, Urea-PAGE. As to conditions: FAS, Urea-PAGE gel-shift, shorter timescale. It counts as biochemical.
Experiment [1] relates to ACP fusion proteins (MBP, GFP, Lux-ACP). Briefly: AcpH label removal from rhodamine-labeled ACP fusion proteins. In kind it is biochemical. To be noted: N-terminal MBP, C-terminal GFP, N-terminal luciferase (Lux-ACP) fusions. As for the experimental part:
Purified apo-MBP-PaACP at 200 μM was labeled with 1 mM rhodamine-CoA and 13 μM native Sfp in a reaction volume of 20 μL for 3 hours at 37° C. Purified apo-GFP-ACP at 150 μM was labeled with 1 mM rhodamine-CoA and 7 μM native Sfp in a reaction volume of 35 μL for 3 hours at 37° C. Purified apo-Lux-ACP at 12 μM was labeled with 50 μM rhodamine-CoA and 3 μM native Sfp for 1 hour at 37° C. Fusion ACPs were then re-purified from excess rhodamine-CoA and native Sfp using Ni-NTA resin, and buffer exchanged and concentrated using 10 kDa MWCO 0.5 mL Amicon spin filters (Millipore). Label removal of MBP-ACP and GFP-ACP proceeded with 4 μL of the concentrated crypto-fusion ACPs with 10 μM AcpH in 10 μL of AcpH reaction buffer for 3 hours at 37° C. 6 μM crypto-Lux-ACP was reacted with 5 μM AcpH for 3 hours at 37° C. AcpH reaction samples were run immediately afterwards on Urea-PAGE (MBP-ACP and GFP-ACP) or SDS-PAGE (Lux-ACP) with no further purification.

For a further experiment, the target named is T1, L majuscula JamC (Moorena producens, UniProt Q6E7K7).
T1 construct: made in house
Briefly: AcpH qualitative CP activity, gel-based, crypto-CP. In kind it is biochemical. As to conditions: PKS; crypto-CP (coumarin-PPant), overnight, 37° C., 1 μM AcpH.

For the next experiment, the target named is E. coli AcpP (Escherichia coli, UniProt P0A6A8). As to conditions: FAS; crypto-CP (coumarin-PPant), overnight, 37° C., 1 μM AcpH. As for the experimental part:
(§1) Unless otherwise noted, all coumarin-PPant labeling proceeded as follows: apo-carrier protein or peptide at 50-200 μM were labeled in 50 mM Na-HEPES pH 7.5, 10 mM MgCl2, 8 mM ATP, 0.1 μM MBP-CoaA/D/E, 0.1 μM native Sfp, and 1.1 equivalents of coumarin-pantetheine at 37° C. overnight. Crypto-protein samples were repurified using standard IMAC techniques in pH 8 lysis buffer with Ni-NTA resin, and spin-concentrated/buffer exchanged to remove imidazole and concentrate with 0.5 mL 3 kDa MWCO cellulose filters. Crypto-peptide samples were purified with HPLC, lyophilized, and redissolved in 50 mM TrisCl pH 8.0 prior to analysis.
(§2) Following AcpH treatment, an equal volume of 2×SDS-PAGE loading dye was added to crypto-carrier proteins samples and heated 5 min at 90° C., and run on 12% or 15% SDS-PAGE. Gels were fixed in 50/40/10% water/methanol/acetic acid for 30 minutes, and washed with water three times before UV imaging. Holo-carrier protein reactions were analyzed with Urea-PAGE as previously described.^6 All protein gels were Coomassie stained for evaluating total protein. Crypto-peptides were evaluated on Urea-PAGE, and were imaged immediately after running with no gel fixing.

For a further experiment, the target named is P. aeruginosa AcpP (Pseudomonas aeruginosa, UniProt O54439). As to conditions: FAS; crypto-CP (coumarin-PPant), overnight, 37° C., 1 μM AcpH. As for the experimental part: as §1, §2
The subject of another experiment is P. falciparum ACP. The experiment can be described thus: AcpH qualitative CP activity, gel-based, crypto-CP. It counts as biochemical. To be noted: FAS; crypto-CP (coumarin-PPant), overnight, 37° C., 1 μM AcpH.
In a further experiment the test system is P. agglomerans AdmA. Briefly: AcpH qualitative CP activity, gel-based, crypto-CP. It counts as biochemical. To be noted: NRPS; crypto-CP (coumarin-PPant), overnight, 37° C., 1 μM AcpH.
The next experiment has as its target P. syringae SyrB1 (Pseudomonas syringae pv. syringae, UniProt Q52400). Briefly: AcpH qualitative CP activity, gel-based, crypto-CP. It counts as biochemical. To be noted: NRPS; crypto-CP (coumarin-PPant), overnight, 37° C., 1 μM AcpH.

B1: PaAcpH: acyl carrier protein hydrolase (AcpH) from P. aeruginosa PAO1, NP13 253043.1 (protein)
chain: MNYLAHLHLGGPQPAQLLGSLYGDFVKGRLQGQWPDEIERAIQLHRRIDAFTDSHPLVHAAKRRFPLERRRFAGVLLDVFFDHCLARDWNDYADEPLPQFVERVYGTLRTASPLPERLARIAPRMAAQDWLGSYREFAVLREVLGGMSRRLSRPHLLDGSWEELAQRYDDLSADFRAFYPQLQAFALSQR
Turning to B1, the “AcpH qualitative CP activity” value in the experiment with S. oneidensis AcpP is “YES^†”; with L majuscula JamC, “YES”; in the experiment with E. coli AcpP it was “YES”; with P. aeruginosa AcpP, “YES”; with P. falciparum ACP, “YES”; with P. agglomerans AdmA, “no”. In the experiment with P. syringae SyrB1, the “AcpH qualitative CP activity” value is “no”. For the same molecule, the “removal of rhodamine-PPT from ACP fusion proteins” value in experiment [1] is given as “removed rhodamine-PPT”.
